In the supplement of paper PMC10567573:

B1: MFF (parent)
chain: MAEISRIQYEMEYTEGISQRMRVP

Variants of: B1
Assay: protein stability index of a GFP-peptide fusion (GPS, HEK-293T) (PSI 1-6); higher = more stable
Conditions: c terminus: a fixed tail appended
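Further: lentivirally expressed fusions sorted by FACS into six bins by GFP to DsRed ratio, PSI derived from sequencing read proportions per bin multiplied by bin number.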

Q: With MAEISRIQYEMEYTESISQRMRVP [G16S] as the variant, how does the protein stability index read?
A: 2.2

Q: With MAEISRIQYEMEYTERISQRMRVP [G16R] as the variant, how does the protein stability index read?
A: 1.9

Q: Which protein stability index does the source give for MAEISRIQYEMEYTEYISQRMRVP [G16Y] here?
A: 1.48

Q: For MAEISRIQYEMEYTEIISQRMRVP [G16I], which protein stability index is on record?
A: 1.62

Q: With MAEISRIQYEMEYTEDISQRMRVP [G16D] as the variant, how does the protein stability index read?
A: 3.02

Q: With MMEISRIQYEMEYTEGISQRMRVP [A2M] as the variant, how does the protein stability index read?
A: 2.03

Q: With MWEISRIQYEMEYTEGISQRMRVP [A2W] as the variant, how does the protein stability index read?
A: 1.51

Q: With MKEISRIQYEMEYTEGISQRMRVP [A2K] as the variant, how does the protein stability index read?
A: 2.77

Q: For MEEISRIQYEMEYTEGISQRMRVP [A2E], which protein stability index is on record?
A: 3.33

Q: For MGEISRIQYEMEYTEGISQRMRVP [A2G], which protein stability index is on record?
A: 3.03

Q: Which protein stability index does the source give for MDEISRIQYEMEYTEGISQRMRVP [A2D] here?
A: 2.83

Q: For MFEISRIQYEMEYTEGISQRMRVP [A2F], which protein stability index is on record?
A: 1.58

Q: With MVEISRIQYEMEYTEGISQRMRVP [A2V] as the variant, how does the protein stability index read?
A: 1.96

Q: With MNEISRIQYEMEYTEGISQRMRVP [A2N] as the variant, how does the protein stability index read?
A: 3.09

Q: Which protein stability index does the source give for MAEISRIGYEMEYTEGISQRMRVP [Q8G] here?
A: 2.9

Q: For MAEISRIQHEMEYTEGISQRMRVP [Y9H], which protein stability index is on record?
A: 3.09

Q: With MAEISRIQFEMEYTEGISQRMRVP [Y9F] as the variant, how does the protein stability index read?
A: 2.11

Q: Which protein stability index does the source give for MAEISRIQQEMEYTEGISQRMRVP [Y9Q] here?
A: 3.35

Q: With MAEISRIQAEMEYTEGISQRMRVP [Y9A] as the variant, how does the protein stability index read?
A: 3.31

Q: For MAEISRIQYEMETTEGISQRMRVP [Y13T], which protein stability index is on record?
A: 3.46

Q: With MAEISRIQYEMEMTEGISQRMRVP [Y13M] as the variant, how does the protein stability index read?
A: 2.67

Q: Which protein stability index does the source give for MAEISRIQYEMEATEGISQRMRVP [Y13A] here?
A: 2.73

Q: Which protein stability index does the source give for MAEISRIQYEMECTEGISQRMRVP [Y13C] here?
A: 3.22

Q: Which protein stability index does the source give for MAESSRIQYEMEYTEGISQRMRVP [I4S] here?
A: 3.42

Q: With MAEYSRIQYEMEYTEGISQRMRVP [I4Y] as the variant, how does the protein stability index read?
A: 2.8

Q: With MAEISRIQYEMRYTEGISQRMRVP [E12R] as the variant, how does the protein stability index read?
A: 2.31

Q: For MAEISRIQYEMFYTEGISQRMRVP [E12F], which protein stability index is on record?
A: 1.34

Q: Which protein stability index does the source give for MAEISRIQYEMLYTEGISQRMRVP [E12L] here?
A: 1.74

Q: For RAEISRIQYEMEYTEGISQRMRVP [M1R], which protein stability index is on record?
A: 3.1

Q: For IAEISRIQYEMEYTEGISQRMRVP [M1I], which protein stability index is on record?
A: 2.36

Q: For MAEISFIQYEMEYTEGISQRMRVP [R6F], which protein stability index is on record?
A: 2.06

Q: For MAEISNIQYEMEYTEGISQRMRVP [R6N], which protein stability index is on record?
A: 3.27

Q: Which protein stability index does the source give for MAEISTIQYEMEYTEGISQRMRVP [R6T] here?
A: 2.93

Q: For MAEISKIQYEMEYTEGISQRMRVP [R6K], which protein stability index is on record?
A: 3.15

Q: For MAEISSIQYEMEYTEGISQRMRVP [R6S], which protein stability index is on record?
A: 3.37

Q: For MAEISRIQYEMEYTEGISPRMRVP [Q19P], which protein stability index is on record?
A: 2.77

Q: For MAEISRIQYEMEYTEGISARMRVP [Q19A], which protein stability index is on record?
A: 2.47

Q: For MAEISRIQYEMEYTEGKSQRMRVP [I17K], which protein stability index is on record?
A: 3.18

Q: Which protein stability index does the source give for MAEISRIQYEMEYTEGESQRMRVP [I17E] here?
A: 3.36

Q: Which protein stability index does the source give for MAEISRIQYEMEYTEGRSQRMRVP [I17R] here?
A: 3.67

Q: Which protein stability index does the source give for MAEISRIQYEMEYTEGWSQRMRVP [I17W] here?
A: 2.25

Q: Which protein stability index does the source give for MAEISRIQYEMEYTEGGSQRMRVP [I17G] here?
A: 3.55

Q: For MAEISRTQYEMEYTEGISQRMRVP [I7T], which protein stability index is on record?
A: 3.4

Q: Which protein stability index does the source give for MAEISRRQYEMEYTEGISQRMRVP [I7R] here?
A: 3.33

Q: With MAEISRGQYEMEYTEGISQRMRVP [I7G] as the variant, how does the protein stability index read?
A: 3.03

Q: For MAEISRAQYEMEYTEGISQRMRVP [I7A], which protein stability index is on record?
A: 3.22

Q: With MAEISRIQYEMEYFEGISQRMRVP [T14F] as the variant, how does the protein stability index read?
A: 1.65

Q: With MAEISRIQYEMEYIEGISQRMRVP [T14I] as the variant, how does the protein stability index read?
A: 1.86

Q: With MAEISRIQYEMEYTEGISQLMRVP [R20L] as the variant, how does the protein stability index read?
A: 2.1

Q: For MAEISRIQYEMEYTEGISQDMRVP [R20D], which protein stability index is on record?
A: 3.56

Q: With MAEISRIQYEMEYTEGISQIMRVP [R20I] as the variant, how does the protein stability index read?
A: 2.05

Q: Which protein stability index does the source give for MAEISRIQYEMEYTEGISQHMRVP [R20H] here?
A: 2.22

Q: For MAEISRIQYEMEYTYGISQRMRVP [E15Y], which protein stability index is on record?
A: 2.03

Q: Which protein stability index does the source give for MAEISRIQYEMEYTHGISQRMRVP [E15H] here?
A: 2.21

Q: For MAEISRIQYEMEYTIGISQRMRVP [E15I], which protein stability index is on record?
A: 2.11

Q: With MAGISRIQYEMEYTEGISQRMRVP [E3G] as the variant, how does the protein stability index read?
A: 2.96

Q: Which protein stability index does the source give for MATISRIQYEMEYTEGISQRMRVP [E3T] here?
A: 2.07

Q: Which protein stability index does the source give for MAEIPRIQYEMEYTEGISQRMRVP [S5P] here?
A: 3.52

Q: With MAEIDRIQYEMEYTEGISQRMRVP [S5D] as the variant, how does the protein stability index read?
A: 3.39

Q: Which protein stability index does the source give for MAEIVRIQYEMEYTEGISQRMRVP [S5V] here?
A: 2.02

Q: For MAEIKRIQYEMEYTEGISQRMRVP [S5K], which protein stability index is on record?
A: 2.17

Q: With MAEIIRIQYEMEYTEGISQRMRVP [S5I] as the variant, how does the protein stability index read?
A: 2.11

Q: Which protein stability index does the source give for MAEISRIQYEMEYTEGISQRMRQP [V23Q] here?
A: 2.99

Q: With MAEISRIQYEMEYTEGISQRMRLP [V23L] as the variant, how does the protein stability index read?
A: 2.46

Q: With MAEISRIQYEMEYTEGISQRMRPP [V23P] as the variant, how does the protein stability index read?
A: 2.54

Q: Which protein stability index does the source give for MAEISRIQYEMEYTEGISQRMRWP [V23W] here?
A: 1.7

Q: With MAEISRIQYEMEYTEGISQRMRSP [V23S] as the variant, how does the protein stability index read?
A: 2.51

Q: With MAEISRIQYEMEYTEGISQRMGVP [R22G] as the variant, how does the protein stability index read?
A: 2.46

Q: With MAEISRIQYEMEYTEGISQRMNVP [R22N] as the variant, how does the protein stability index read?
A: 2.36

Q: Which protein stability index does the source give for MAEISRIQYEMEYTEGISQRMQVP [R22Q] here?
A: 2.43

Q: For MAEISRIQYEMEYTEGISQRMDVP [R22D], which protein stability index is on record?
A: 2.6

Q: With MAEISRIQYEMEYTEGISQRMTVP [R22T] as the variant, how does the protein stability index read?
A: 2.98

Q: For MAEISRIQYEMEYTEGISQRIRVP [M21I], which protein stability index is on record?
A: 2.42

Q: With MAEISRIQYEMEYTEGISQRSRVP [M21S] as the variant, how does the protein stability index read?
A: 3.31

Q: For MAEISRIQYEMEYTEGISQRPRVP [M21P], which protein stability index is on record?
A: 3.59

Q: For MAEISRIQYEVEYTEGISQRMRVP [M11V], which protein stability index is on record?
A: 2.89

Q: With MAEISRIQYEYEYTEGISQRMRVP [M11Y] as the variant, how does the protein stability index read?
A: 2.67

Q: Which protein stability index does the source give for MAEISRIQYESEYTEGISQRMRVP [M11S] here?
A: 3.19

Q: Which protein stability index does the source give for MAEISRIQYEFEYTEGISQRMRVP [M11F] here?
A: 2.35

Q: Which protein stability index does the source give for MAEISRIQYHMEYTEGISQRMRVP [E10H] here?
A: 2.42

Q: With MAEISRIQYSMEYTEGISQRMRVP [E10S] as the variant, how does the protein stability index read?
A: 2.74

Q: With MAEISRIQYRMEYTEGISQRMRVP [E10R] as the variant, how does the protein stability index read?
A: 2.05

Q: With MAEISRIQYDMEYTEGISQRMRVP [E10D] as the variant, how does the protein stability index read?
A: 2.74

Q: Which protein stability index does the source give for MAEISRIQYWMEYTEGISQRMRVP [E10W] here?
A: 2.72

Q: Which protein stability index does the source give for MAEISRIQYQMEYTEGISQRMRVP [E10Q] here?
A: 2.76

Q: For MAEISRIQYNMEYTEGISQRMRVP [E10N], which protein stability index is on record?
A: 2.55

Q: Which protein stability index does the source give for MAEISRIQYEMEYTEGISQRMRVA [P24A] here?
A: 2.16

Q: For MAEISRIQYEMEYTEGISQRMRVW [P24W], which protein stability index is on record?
A: 1.32

Q: With MAEISRIQYEMEYTEGISQRMRVH [P24H] as the variant, how does the protein stability index read?
A: 2.02

Q: For MAEISRIQYEMEYTEGISQRMRVE [P24E], which protein stability index is on record?
A: 2.74

Q: For MAEISRIQYEMEYTEGISQRMRVM [P24M], which protein stability index is on record?
A: 2.21

Q: For MAEISRIQYEMEYTEGISQRMRVT [P24T], which protein stability index is on record?
A: 3.42

Q: With MAEISRIQYEMEYTEGISQRMRVV [P24V] as the variant, how does the protein stability index read?
A: 1.84

Q: For MAEISRIQYEMEYTEGISQRMRVD [P24D], which protein stability index is on record?
A: 2.7
